In experiment [1] the target is T1, human vascular endothelial growth factor receptor-2 (hVEGFR-2) (human, UniProt P35968 20-1356).
T1 construct: whole, on cells; also called flk-1; FLK-1
Put plainly: 125I-VEGF165 competition, whole COS-1 cells. On the procedure: (§1) Cells are plated the day before experimentation at 200,000 cells per well in twelve well tissue culture plates (VWR) in 1 ml of growth medium specific for each cell type. On the day of experimentation, the cells were pre-equilibrated at 4° C. for 30 to 60 minutes in binding buffer (0.2% BSA, Sigma; 25 mM Hepes, Gibco; MEM, Gibco). […] The binding reaction is allowed to reach equilibrium for four hours at 4° C. with gentle agitation.
(§2) Unbound ligand is then removed by quickly washing three times with 5 ml ice cold BSA-free binding buffer (MEM, Gibco, 25 mM Hepes, Gibco). Cells are lysed by the addition of 250 μl of RIPS Buffer (previously described), and the lysed cells are transferred to 12×75 mm test tubes and counted using a gamma counter. Generation of competition curves and IC₅₀ values are performed using the Prism software package (Graphpad Software Inc., San Diego, Calif.).

In experiment [2] the target is VEGFR-2/NP-1 co-receptor complex (cells co-expressing hVEGFR-2 and hNP-1) (human) (UniProt P35968). Put plainly: 125I-VEGF165 competition, whole COS-1 cells.
Sequence of VEGFR-2/NP-1 co-receptor complex (cells co-expressing hVEGFR-2 and hNP-1) (human) (P35968 20-1356, chain 1 of 2): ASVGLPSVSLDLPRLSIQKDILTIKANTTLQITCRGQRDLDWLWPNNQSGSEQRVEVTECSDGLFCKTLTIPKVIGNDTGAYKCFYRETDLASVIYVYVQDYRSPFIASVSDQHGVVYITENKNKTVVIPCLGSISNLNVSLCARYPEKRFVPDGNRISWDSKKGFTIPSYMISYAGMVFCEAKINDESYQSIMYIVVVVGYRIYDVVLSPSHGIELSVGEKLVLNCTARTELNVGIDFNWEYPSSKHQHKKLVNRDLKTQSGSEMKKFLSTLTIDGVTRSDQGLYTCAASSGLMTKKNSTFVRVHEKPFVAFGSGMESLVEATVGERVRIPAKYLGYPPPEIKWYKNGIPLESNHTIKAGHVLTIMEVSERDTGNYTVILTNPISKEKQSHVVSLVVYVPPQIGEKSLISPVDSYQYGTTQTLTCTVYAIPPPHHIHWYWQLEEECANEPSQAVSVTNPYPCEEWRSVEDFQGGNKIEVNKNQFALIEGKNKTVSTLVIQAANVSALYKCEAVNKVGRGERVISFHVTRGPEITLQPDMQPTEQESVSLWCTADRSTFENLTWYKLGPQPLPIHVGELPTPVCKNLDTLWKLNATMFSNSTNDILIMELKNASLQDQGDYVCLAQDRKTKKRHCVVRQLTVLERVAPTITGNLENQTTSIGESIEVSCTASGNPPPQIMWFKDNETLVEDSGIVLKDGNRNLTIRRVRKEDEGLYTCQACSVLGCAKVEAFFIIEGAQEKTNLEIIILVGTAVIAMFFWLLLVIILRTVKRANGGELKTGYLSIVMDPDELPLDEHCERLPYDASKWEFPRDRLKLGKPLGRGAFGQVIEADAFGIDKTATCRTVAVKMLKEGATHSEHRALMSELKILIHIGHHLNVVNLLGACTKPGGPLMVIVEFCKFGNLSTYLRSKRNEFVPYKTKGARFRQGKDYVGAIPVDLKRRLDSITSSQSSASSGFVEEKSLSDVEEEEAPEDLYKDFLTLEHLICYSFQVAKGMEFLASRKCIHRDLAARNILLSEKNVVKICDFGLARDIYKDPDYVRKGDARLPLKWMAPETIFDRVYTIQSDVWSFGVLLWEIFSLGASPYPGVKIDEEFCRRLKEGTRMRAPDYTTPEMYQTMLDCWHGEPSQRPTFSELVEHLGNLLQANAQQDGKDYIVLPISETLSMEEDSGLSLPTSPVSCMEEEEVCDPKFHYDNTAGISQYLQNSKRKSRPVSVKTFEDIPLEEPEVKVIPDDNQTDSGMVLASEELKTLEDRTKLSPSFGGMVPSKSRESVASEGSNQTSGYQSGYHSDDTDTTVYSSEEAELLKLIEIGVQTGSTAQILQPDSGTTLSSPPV
Sequence of VEGFR-2/NP-1 co-receptor complex (cells co-expressing hVEGFR-2 and hNP-1) (human) (O14786 22-923, chain 2 of 2, further chain): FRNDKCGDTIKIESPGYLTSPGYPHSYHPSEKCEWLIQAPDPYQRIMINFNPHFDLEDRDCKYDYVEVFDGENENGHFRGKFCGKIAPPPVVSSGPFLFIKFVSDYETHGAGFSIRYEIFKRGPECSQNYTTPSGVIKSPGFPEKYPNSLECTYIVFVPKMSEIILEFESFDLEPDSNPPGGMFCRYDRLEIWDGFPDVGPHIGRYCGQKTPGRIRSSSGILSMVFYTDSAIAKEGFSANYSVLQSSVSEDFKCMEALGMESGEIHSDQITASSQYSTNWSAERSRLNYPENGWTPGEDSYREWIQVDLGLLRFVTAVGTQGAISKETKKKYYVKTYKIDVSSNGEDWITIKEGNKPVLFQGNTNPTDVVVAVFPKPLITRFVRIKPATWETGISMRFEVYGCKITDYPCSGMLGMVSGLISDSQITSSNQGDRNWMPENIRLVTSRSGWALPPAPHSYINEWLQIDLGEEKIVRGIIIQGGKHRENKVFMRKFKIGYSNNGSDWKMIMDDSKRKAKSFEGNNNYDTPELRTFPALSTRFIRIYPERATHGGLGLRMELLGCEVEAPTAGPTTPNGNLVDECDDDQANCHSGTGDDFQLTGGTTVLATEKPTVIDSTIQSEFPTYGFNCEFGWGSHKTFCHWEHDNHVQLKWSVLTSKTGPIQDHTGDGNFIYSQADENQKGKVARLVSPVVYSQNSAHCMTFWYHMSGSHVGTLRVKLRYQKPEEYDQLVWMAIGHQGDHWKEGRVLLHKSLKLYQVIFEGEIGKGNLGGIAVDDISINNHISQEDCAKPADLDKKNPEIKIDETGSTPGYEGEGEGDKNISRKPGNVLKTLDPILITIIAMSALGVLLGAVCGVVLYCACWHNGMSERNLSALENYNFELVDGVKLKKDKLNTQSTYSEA
In experiment [3] the target is human vascular endothelial growth factor receptor-2 (hVEGFR-2) (human) (UniProt P35968). Put plainly: 125I-VEGF165 competition, whole COS-1 cells.
Sequence of human vascular endothelial growth factor receptor-2 (hVEGFR-2) (human) (P35968 20-1356): as the sequence (P35968 20-1356, chain 1 of 2) above
For experiment [4], the target named is T2, human Neuropilin-1 (hNP-1) (human, UniProt O14786 22-923).
T2 construct: whole, on cells; also called hNeuropilin-1
T2 sequence (O14786 22-923): as the sequence (O14786 22-923, chain 2 of 2, further chain) above
Put plainly: 125I-VEGF165 competition, stable Balb/C 3T3 A31 cells.

The target of experiment [5] is T2, human Neuropilin-1 (hNP-1). Briefly: 125I-VEGF165 competition, whole COS-1 cells.
The target of experiment [6] is T2, human Neuropilin-1 (hNP-1). Briefly: 125I-VEGF165 competition by cold VEGF165, whole COS-1 cells. On the procedure:
as §1, §2

The target in experiment [7] is T2, human Neuropilin-1 (hNP-1). Put plainly: saturation binding of 125I-VEGF165, whole COS-1 cells (transient). How it is done:
as §1, §2

The target in experiment [8] is T3, VEGFR-2/NP-1 co-receptor complex (cells co-expressing hVEGFR-2 and hNP-1) (human, UniProt P35968 20-1356; O14786 22-923).
T3 construct: whole, on cells; All numbers printed for cells co-expressing both receptors are put on this molecule; also called R2 + NP1 Cells; VEGFR-2/NP-1 complex
T3 sequence (P35968 20-1356, chain 1 of 2): as the sequence (P35968 20-1356, chain 1 of 2) above
T3 sequence (O14786 22-923, chain 2 of 2): as the sequence (O14786 22-923, chain 2 of 2, further chain) above
Briefly: 125I-VEGF165 (201 pM) competition, cells overexpressing VEGFR-2 and NP-1 (FIG. 7). How it is done: as §1, §2

For experiment [9], the target named is T3, VEGFR-2/NP-1 co-receptor complex (cells …). Briefly: 125I-VEGF165 competition, whole COS-1 cells.
Experiment [10] deals with VEGFR-2/NP-1 co-receptor complex (cells co-expressing hVEGFR-2 and hNP-1) (human) (UniProt P35968). Briefly: 125I-VEGF165 competition, whole COS-1 cells. This is another data set of the same source.
For experiment [11], the target named is human Neuropilin-1 (hNP-1) (human) (UniProt O14786). Briefly: 125I-VEGF165 competition, whole COS-1 cells.
Sequence of human Neuropilin-1 (hNP-1) (human) (O14786 22-923): as the sequence (O14786 22-923, chain 2 of 2, further chain) above
Experiment [12] addresses T2, human Neuropilin-1 (hNP-1). Briefly: 125I-VEGF165 competition, whole COS-1 cells. On the procedure:
as §1, §2
This is another data set of the same source.

Like-named read-outs stand apart in the source and are kept apart here. Bridge positions count the residues as written; N and C are the ends. Ends that are not written are not given here.

A word on the IC50: it is the concentration that inhibits the measured activity by half. The low end stands for higher potency, the high end for lower potency. Broadly, the Kd is the constant that tells how readily two partners part at equilibrium. Higher therefore signals weaker binding.

T1 sequence (P35968 20-1356): as the sequence (P35968 20-1356, chain 1 of 2) above

Turning to RRPAAAGKRRREKQRPSDKPRR [AS-1], the binding result in [1] was “no binding”.

Regarding KGRGKRAAEKQAPSDKPRR [P6V8-3NCSA7, 8, 12], the results for the relative affinity (IC50 peptide / IC50 VEGF165) in experiment [2] and in experiment [3] were 36600 and 6000, respectively. Turning to KGRGKRRREKQRPCDKPRR [P6V8-3N], the 50% inhibitory concentration (IC50) in experiment [4] is 254 nM. Turning to KGAGARRREKQRPSDKPRR [P6V8-3NCSA3A5], the binding result in [1] is listed as “no binding”. Same read-out and setting: as for AGRGKARREKQRPSDKPRR [P6V8-3NCSA1A6], the entry is “no binding”; as for AGRGARRREKQRPSDKPRR [P6V8-3NCSA1A5], “no binding”. Same read-out and setting: as for KGAGKARREKQRPSDKPRR [P6V8-3NCSA3A6], the entry is “no binding”. For the molecule RRPKGRGKRRREKQRAAAKPRR [AS-4a], the relative affinity to lead peptide (IC50 peptide / IC50 P6V8CS) in [3] is 1.9. As for CKGRGKRCREKQRPSDKPRR (disulfide 1-8, also called P6V8-3NCW1-7CC) [P6V8-3NCS1-7CC], in [1], the binding result is given as “no binding”. On the same count and under the same terms, as for KGRGKRAAEAQAPSDKPRR [P6V8-3NCSA7, 8, 10, 12], the entry is “no binding”.

B1: P6V8 (peptide)
peptide: RRPKGRGKRRREKQRPCDKPRR
notes: synthetic; holds one free cysteine; also called P6V8 parent peptide
Regarding B1, the binding result in experiment [5] is listed as “binds”.

B2: human recombinant VEGF165 (ligand, UniProt P15692-4 27-191, looked up)
chain: APMAEGGGQNHHEVVKFMDVYQRSYCHPIETLVDIFQEYPDEIEYIFKPSCVPLMRCGGCCNDEGLECVPTEESNITMQIMRIKPHQGQHIGEMSFLQHNKCECRPKKDRARQENPCGPCSERRKHLFVQDPQTCKCSCKNTDSRCKARQLELNERTCRCDKPRR
modifications: 125I-labelled (chloramine T) where used as tracer
On to B2, for which, in experiment [6], the IC50 worked out at 0.582 nM and the “log IC50” value is -9.24. Besides, in [7], binding was put at a Kd of 2.09 nM and the “Log Kd” value is -8.68.

Take AGRGARAAEKQAPSDKPRR [P6V8-3NCSA1, 5, 7, 8, 12]: the binding result in experiment [1] is on record as “no binding”. In experiment [8], RRPKGRGKRRREKQRPDAVPRR (also called P6P7 peptide) [P6P7] returned a concentration for half-maximal inhibition (IC50) of 1.17 µM.

In experiment [3], KGRGKRAAEAQRPSDKPRR [P6V8-3NCSA7, 8, 10] gave a relative affinity (IC50 peptide / IC50 VEGF165) of 110000. For the molecule KGRGKRRRECQRPSCKPRR (disulfide 10-15) [P6V8-3NCSC13C18], the values for the binding result in experiment [5], in experiment [9] and in experiment [1] were “binds”, “binds” and “no binding”, respectively.

B3: (cap)P6V8-3NCS (peptide)
peptide: KGRGKRRREKQRPSDKPRR
modifications: not fully specified (N-terminus, C-terminus); also: amino and carboxyl termini capped, caps not given here
For B3, the relative affinity (IC50 peptide / IC50 VEGF165) in experiment [10] stood at 96200. Further, the binding result in experiment [1] is reported as “no binding”. As for AGRGARAAEAQRPSDKPRR [P6V8-3NCSA1, 5, 7, 8, 10], the relative affinity to lead peptide (IC50 peptide / IC50 P6V8-3NCS) in [11] worked out at 67.8. In [3], this molecule yielded a relative affinity (IC50 peptide / IC50 VEGF165) of 212000. As for CAGRGKRCREKQRPSDKPRR (disulfide 1-8, also called P6V8-3NCSA-1 7CCA1) [P6V8-3NCS1-7CCA1], the binding result in experiment [1] is on record as “no binding”. The same measure, in the same setting: as for CAGRGARCREKQRPSDKPRR (disulfide 1-8) [P6V8-3NCS1-7CCA1A5], the entry is “no binding”. Regarding CKGRGKRCREKQRPSDKPRR (disulfide 1-8; also: capped amino and carboxyl termini, caps not given here) [(cap)P6V8-3NCS1-7CC], the binding result in experiment [5], in experiment [9] and in experiment [1] was “no binding” throughout. Take CKGRGARCREKQRPSDKPRR (disulfide 1-8) [P6V8-3NCS1-7CCA5]: the binding result in experiment [1] is given as “no binding”. Molecule RRPKGRGKRRREKQRP (also called P6 peptide; pp6) [P6] yielded an IC50 in experiment [8] of 12.2 µM. For the molecule RPCDKPRR [V8], the binding result in [1] and in experiment [12] was “no binding” each time. As for RPSDKPRR [V8CS], the binding result in experiment [1] was “no binding”.

The record behind these values is US20030186868A1 (Regeneron, published 2003).
